Measurements published in patent publication US20020098541A1 (published 2002).

Key:
Assay in all cases: co-immunoprecipitation from co-transfected 293 cell lysates: anti-FLAG IP, anti-HA immunoblot
[1] = biological target: T1, FLAG tagged TRAF 2 (UniProt Q12933 1-501, limits assumed)
T1 sequence (looked up): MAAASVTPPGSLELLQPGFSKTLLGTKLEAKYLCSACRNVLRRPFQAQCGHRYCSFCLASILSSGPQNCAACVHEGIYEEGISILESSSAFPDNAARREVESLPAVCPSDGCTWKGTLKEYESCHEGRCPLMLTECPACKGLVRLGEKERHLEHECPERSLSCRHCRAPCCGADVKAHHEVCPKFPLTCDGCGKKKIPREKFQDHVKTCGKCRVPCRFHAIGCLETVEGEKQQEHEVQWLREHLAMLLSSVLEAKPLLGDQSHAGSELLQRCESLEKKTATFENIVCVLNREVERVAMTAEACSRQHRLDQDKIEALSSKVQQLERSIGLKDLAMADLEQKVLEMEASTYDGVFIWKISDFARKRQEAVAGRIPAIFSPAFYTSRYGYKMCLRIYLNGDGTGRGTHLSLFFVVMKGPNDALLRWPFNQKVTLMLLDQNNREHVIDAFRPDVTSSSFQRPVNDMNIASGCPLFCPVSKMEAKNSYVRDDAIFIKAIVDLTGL
Description: (§1) For TRAF binding assays, 5×10⁵ 293 cells were transfected with 10 μg of HA tagged TR12 and 10 μg of FLAG tagged TRAF 1, 2, 3, 5, or 6 by the calcium phosphate method and cells were harvested 48 hours post transfection in lysis buffer (with 1% NP-40). Whole cell lysates were immunoprecipated with anti-FLAG M2 beads (Sigma, MO), washed 5× with lysis buffer (without BSA), boiled 5 minutes, separated by 10% SDS PAGE, transferred to nitrocellulose, probed with anti-HA HRP (Roche), and developed with ECL (Amersham).
(§2) Since NF-κB activation by TNFR superfamily members is mediated primarily by the TRAF family of signaling molecules, the ability of TR12 to bind any of the TRAF molecules was studied. 293 cells were co-transfected with a FLAG tagged TRAF expression plasmid and a hemagglutinin tagged TR12 expression plasmid.

[2] = biological target: T2, FLAG tagged TRAF 3 (UniProt Q13114 1-568, limits assumed)
T2 sequence (looked up): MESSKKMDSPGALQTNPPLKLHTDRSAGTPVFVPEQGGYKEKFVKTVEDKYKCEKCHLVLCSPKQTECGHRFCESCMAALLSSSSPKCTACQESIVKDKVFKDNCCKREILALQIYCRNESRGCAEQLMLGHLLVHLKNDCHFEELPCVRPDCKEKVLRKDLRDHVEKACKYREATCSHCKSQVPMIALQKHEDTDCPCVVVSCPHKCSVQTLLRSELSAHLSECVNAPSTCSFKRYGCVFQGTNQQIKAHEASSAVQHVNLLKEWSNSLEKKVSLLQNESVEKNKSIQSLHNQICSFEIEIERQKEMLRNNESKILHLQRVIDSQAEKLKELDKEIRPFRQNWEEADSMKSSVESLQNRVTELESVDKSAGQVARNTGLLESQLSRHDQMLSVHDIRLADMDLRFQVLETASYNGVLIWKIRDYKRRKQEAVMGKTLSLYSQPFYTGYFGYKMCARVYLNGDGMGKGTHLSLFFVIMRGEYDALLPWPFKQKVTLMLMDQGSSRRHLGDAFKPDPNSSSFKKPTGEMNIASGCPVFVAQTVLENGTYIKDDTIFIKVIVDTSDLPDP
Description: as §1, §2

[3] = biological target: FLAG tagged TRAF 5 (UniProt O00463 1-557, limits assumed)
Sequence of FLAG tagged TRAF 5 (O00463 whole entry): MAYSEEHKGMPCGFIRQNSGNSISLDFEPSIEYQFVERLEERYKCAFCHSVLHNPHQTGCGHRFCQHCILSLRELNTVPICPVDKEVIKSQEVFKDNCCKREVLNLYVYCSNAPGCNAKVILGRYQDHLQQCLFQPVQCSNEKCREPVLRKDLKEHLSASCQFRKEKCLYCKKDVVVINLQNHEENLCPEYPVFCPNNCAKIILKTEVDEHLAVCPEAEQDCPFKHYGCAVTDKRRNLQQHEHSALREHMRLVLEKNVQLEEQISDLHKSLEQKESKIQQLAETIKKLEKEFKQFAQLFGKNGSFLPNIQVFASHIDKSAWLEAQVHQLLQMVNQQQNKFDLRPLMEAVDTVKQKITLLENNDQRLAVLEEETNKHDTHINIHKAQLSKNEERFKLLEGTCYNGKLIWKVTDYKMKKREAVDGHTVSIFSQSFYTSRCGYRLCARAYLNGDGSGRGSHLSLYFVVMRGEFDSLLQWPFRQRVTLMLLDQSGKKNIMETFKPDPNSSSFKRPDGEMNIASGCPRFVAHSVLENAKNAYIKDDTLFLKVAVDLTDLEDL
Description: as §1, §2

[4] = biological target: T3, FLAG tagged TRAF 6 (UniProt Q9Y4K3 1-522, limits assumed)
T3 sequence (looked up): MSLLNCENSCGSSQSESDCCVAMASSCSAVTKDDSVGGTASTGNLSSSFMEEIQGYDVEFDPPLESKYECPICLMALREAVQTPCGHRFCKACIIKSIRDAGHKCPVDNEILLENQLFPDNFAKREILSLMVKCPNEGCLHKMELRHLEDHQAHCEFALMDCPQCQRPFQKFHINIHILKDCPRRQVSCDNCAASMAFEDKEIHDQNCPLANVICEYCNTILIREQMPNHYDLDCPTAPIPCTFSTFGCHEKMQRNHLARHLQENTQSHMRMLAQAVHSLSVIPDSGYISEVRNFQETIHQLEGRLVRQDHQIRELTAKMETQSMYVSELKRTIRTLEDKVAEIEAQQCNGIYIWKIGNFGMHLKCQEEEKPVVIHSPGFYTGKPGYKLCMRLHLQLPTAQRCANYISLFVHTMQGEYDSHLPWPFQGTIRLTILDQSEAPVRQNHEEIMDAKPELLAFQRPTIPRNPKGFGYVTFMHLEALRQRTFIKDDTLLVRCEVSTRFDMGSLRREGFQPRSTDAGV
Description: as §1, §2

Measured: binding result

B1: HA tagged TR12 (TNFR Related Gene 12) (receptor)
chain: STTLWQCPPGEEPDLDPGQGTLCRPCPPGTFSAAWGSSPCQPHARCSLWRRLEAQVGMATRDTLCGDCWPGWFGPWGVPRVPCQPCSWAPLGTHGCDEWGRRARRGVEVAAGASSGGETRQPGNGTRAGGPEETAAQYAVIAIVPVFCLMGLLGILVCNLLKRKGYHCTAHKEVGPGPGGGGSGINPAYRTEDANEDTIGVLVRLITEKKENAAALEELLKEYHSKQLVQTSHRPVSKLPPAPPNVPHICPHRHHLHTVQGLASLSGPCCSRCSQKKWPEVLLSPEAVAATTPVPSLLPNPTRVPKAGAKAGRQGEITILSVGRFRVARIPEQRTSSMVSEVKTITEAGPSWGDLPDSPQPGLPPEQQALLGSGGSRTKWLKPPAENKAEENRYVVRLSESNLVI
notes: Expressed from a plasmid in transfected 293 cells and tested in whole cell lysate; It includes the predicted leader (about residues 1-25), which may be cleaved in cells; also called hemagglutinin tagged TR12; not shown: HA (hemagglutinin) tag
no binding: all assays above
